# Measured values published in patent US20020137055, “Method and apparatus for measurement of the effect of test compounds on signal transduction at the level of biological receptors” (published 2002).
# Legend:
# Details in all cases: protein: extract; tags: Cy5-labelled; expressed as ubiquitin fusion in Saccharomyces cerevisiae AF103 (YEpE10 plasmid); yeast extract preparation
# [1] = target: T1, human estrogen receptor (recombinant hER, 65 kDa) (Homo sapiens, UniProt P03372 P03372:1-595); assay: evanescent fiber optic sensor; with 1e-6 M estrone; control 3.51
# T1 sequence (P03372 whole entry, one chain of several): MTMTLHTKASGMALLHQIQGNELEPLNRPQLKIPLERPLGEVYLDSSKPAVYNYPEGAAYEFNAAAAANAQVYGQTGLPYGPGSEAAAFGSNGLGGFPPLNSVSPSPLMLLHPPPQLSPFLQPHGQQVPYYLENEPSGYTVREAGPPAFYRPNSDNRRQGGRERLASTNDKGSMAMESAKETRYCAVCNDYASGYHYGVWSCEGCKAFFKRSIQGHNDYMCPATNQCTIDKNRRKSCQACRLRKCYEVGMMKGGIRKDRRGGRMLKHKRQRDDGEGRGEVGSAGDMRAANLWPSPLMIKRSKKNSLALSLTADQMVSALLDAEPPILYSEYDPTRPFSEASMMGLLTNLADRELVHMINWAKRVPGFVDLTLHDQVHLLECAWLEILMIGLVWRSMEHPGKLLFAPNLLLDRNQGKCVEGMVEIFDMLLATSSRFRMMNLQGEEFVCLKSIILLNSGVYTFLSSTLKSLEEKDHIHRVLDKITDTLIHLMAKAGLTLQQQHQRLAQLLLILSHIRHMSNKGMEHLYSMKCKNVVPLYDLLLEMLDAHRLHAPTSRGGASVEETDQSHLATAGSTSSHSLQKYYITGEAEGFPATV
# Procedure: (§1) This solution comprised said calibration standard of component 6a. […] This receptor preparation was used as the calibration solution. Immediately after preparation it was pipetted in 135 μl aliquots into microcentrifuge tubes, snap frozen and stored at −80° C. They were not thawed again until they were used with the fiber sensor. Sample solutions of component 6a were similarly prepared, except that the dilution at the end with receptor buffer gave a total receptor concentration of […]. If the solution was to be used with an ERE fiber (component 1a type 2), then polydeoxyinosinic-deoxycytidylic acid sodium salt was added to the receptor buffer to prevent nonspecific binding to the ERE fiber. Solutions containing 4.4×10⁻¹⁰ M Cy5-tagged-estrogen-receptor solution and in addition to a predetermined amount of estrogen or estrogen mimic were created to test the impact of said estrogen or estrogen mimic.
# (§2) 12) Using fiber sensors of component 1a type 2, and the foregoing procedure the S/C value was calculated for several different estrogens tested at 10⁻⁶ M concentration.
# [2] = target: T1, human estrogen receptor (recombinant …); assay: evanescent fiber optic sensor; control, no ligand; 4.4e-10 M receptor; 500 mM KCl phosphate pH 7.5, poly(dI-dC)
# Procedure: as §1, §2
# [3] = target: T1, human estrogen receptor (recombinant …); assay: evanescent fiber optic sensor; with 1e-6 M diethylstilbestrol; control 3.51
# Procedure: as §1, §2
# [4] = target: T1, human estrogen receptor (recombinant …); assay: evanescent fiber optic sensor; with 1e-6 M zearalenone; control 3.51
# Procedure: as §1, §2
binder,measurement,setting,value
"ERE (Xenopus vitellogenin A2 estrogen response element) (dsDNA, amine on the 5' G residue of one strand, covalently linked to optical fiber via GMBS) DNA 1: GTCCAAAGTCAGGTCACAGTGACCTGATCAAAGTT DNA 2: AACTTTGATCAGGTCACTGTGACCTGACTTTGGAC",binding signal,[1],4.44 S/C ratio
same,binding signal,[2],3.51 S/C ratio
same,binding signal,[3],4.87 S/C ratio
same,binding signal,[4],5.01 S/C ratio
